Values belong to the substance of their own block, whether it stands above or below them.
Experiments:
[1] = molecular target: human CTLA-4 (human) (UniProt P16410); assay: flow cytometry, CHO cells expressing huCTLA-4
[2] = molecular target: PD-L1 (human) (UniProt Q9NZQ7); assay: flow cytometry, CHO cells expressing huPD-L1
[3] = molecular target: CD28 (human) (UniProt P10747); assay: flow cytometry, Jurkat/IL2 reporter cells (CD28)
[4] = molecular target: PD-L1 (human) (UniProt Q9NZQ7); assay: flow cytometry, Expi293F cells transfected with PD-L1
[5] = molecular target: CD28 (human) (UniProt P10747); assay: flow cytometry, Jurkat cells (CD28)
[6] = molecular target: PD-L1 (human) (UniProt Q9NZQ7); assay: flow cytometry, MFI on PD-L1 cells over MFI on CD28 cells
Target sequence in this assay (Q9NZQ7 19-290): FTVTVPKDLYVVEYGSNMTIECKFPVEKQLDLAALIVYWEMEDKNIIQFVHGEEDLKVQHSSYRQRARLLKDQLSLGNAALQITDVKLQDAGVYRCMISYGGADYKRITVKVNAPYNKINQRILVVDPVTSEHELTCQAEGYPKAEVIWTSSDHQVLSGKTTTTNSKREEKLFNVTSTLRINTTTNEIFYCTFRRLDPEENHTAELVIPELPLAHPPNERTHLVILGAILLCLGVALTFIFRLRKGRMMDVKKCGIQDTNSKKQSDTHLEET

[7] = molecular target: PD-L1 (human) (UniProt Q9NZQ7); assay: flow cytometry, CHO cells stably expressing PD-L1
Target sequence in this assay (Q9NZQ7 19-290): as above

[8] = molecular target: human CTLA-4 (human) (UniProt P16410); assay: flow cytometry, CHO cells stably expressing CTLA4
[9] = molecular target: CD28 (human) (UniProt P10747)
[10] = molecular target: human CTLA-4 (huCTLA4), on stably transduced CHO cells (human) (UniProt P16410); assay: flow cytometry on CHO cells stably expressing huCTLA4, 33.3 nM Fc fusion, PE anti-human Fc
[11] = molecular target: CD28, endogenously expressed on Jurkat/IL2 reporter cells (human) (UniProt P10747); assay: flow cytometry on Jurkat/IL2 reporter cells (endogenous CD28), 33.3 nM Fc fusion, PE anti-human Fc
[12] = molecular target: human PD-L1 (huPD-L1), on stably transduced CHO cells (human) (UniProt Q9NZQ7); assay: flow cytometry on CHO cells stably expressing huPD-L1, 33.3 nM Fc fusion, PE anti-human Fc

Chain of human CTLA-4 (huCTLA4), on stably transduced CHO cells (human) (P16410 36-223): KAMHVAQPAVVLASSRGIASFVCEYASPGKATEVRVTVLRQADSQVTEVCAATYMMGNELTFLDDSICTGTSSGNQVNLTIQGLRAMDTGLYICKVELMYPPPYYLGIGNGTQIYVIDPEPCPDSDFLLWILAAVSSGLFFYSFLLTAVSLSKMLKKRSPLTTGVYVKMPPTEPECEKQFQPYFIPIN
Chain of human CTLA-4 (human) (P16410 36-223): as above

Substance: variant CD80 IgV-Fc E35D/D46V/M47V/V68M/K89N (Fc fusion)
- MFI at 33.3 nM [3]: 2120 MFI
- MFI at 33.3 nM [2]: 21600 MFI

Substance: WT CD80 ECD-Fc (effector) (Fc fusion)
- IL-2 release, primary T cells + K562/OKT3 (No PD-L1), 100 nM [9]: 23100
- IL-2 release, primary T cells + K562/OKT3/PD-L1, 100 nM [9]: 8390

Substance: CD80 L70Q/A91G/N144D ECD-Fc (Fc fusion)
- MFI [4]: 6 MFI

Substance: variant CD80 IgV-Fc N48K/V68M (Fc fusion)
- MFI at 33.3 nM [1]: 2340 MFI
- MFI at 33.3 nM [3]: 118 MFI
- MFI at 33.3 nM [2]: 754 MFI

Substance: variant CD80 IgV-Fc V68M (Fc fusion)
- MFI at 33.3 nM [1]: 568 MFI
- MFI at 33.3 nM [3]: 37.9 MFI
- MFI at 33.3 nM [2]: 118 MFI

Substance: variant CD80 IgV-Fc L85Q (Fc fusion)
- MFI at 33.3 nM [1]: 3000 MFI
- MFI at 33.3 nM [3]: 35 MFI
- MFI at 33.3 nM [2]: 97 MFI

Substance: variant CD80 IgV-Fc N48K (Fc fusion)
- MFI at 33.3 nM [1]: 4950 MFI
- MFI at 33.3 nM [3]: 60.1 MFI
- MFI at 33.3 nM [2]: 481 MFI

Substance: variant CD80 IgV-Fc H18Y/A26E/E35D/V68M/D90G (Fc fusion)
- Fold change to WT CD80 [5]: 58.9 fold
- MFI at 33.3 nM [5]: 2580 MFI
- Ratio of PDL1:CD28 [6]: 9
- Fold change to WT CD80 [7]: 532 fold
- MFI at 33.3 nM [7]: 23200 MFI
- Fold change to WT CD80 [8]: 14.2 fold
- MFI at 33.3 nM [8]: 19300 MFI

Substance: variant CD80 IgV-Fc E35D/M47V/I61V/L85M (Fc fusion)
- MFI at 33.3 nM [10]: 28800 MFI
- MFI at 33.3 nM [12]: 3050 MFI
- MFI at 33.3 nM [11]: 274 MFI

Substance: variant CD80 IgV-Fc M47V/V68M/K89N (Fc fusion)
- MFI at 33.3 nM [1]: 24800 MFI
- MFI at 33.3 nM [3]: 1320 MFI
- MFI at 33.3 nM [2]: 11800 MFI

Substance: variant CD80 IgV-Fc E35D/M43I/M47L/L85M (Fc fusion)
- MFI at 33.3 nM [10]: 24600 MFI
- MFI at 33.3 nM [12]: 4880 MFI

Substance: variant CD80 IgV-Fc E35D/M47V/N48K/L85M (Fc fusion)
- MFI at 33.3 nM [12]: 5660 MFI
- MFI at 33.3 nM [11]: 413 MFI

Substance: variant CD80 IgV-Fc M47V/N48K/V68M/K89N (Fc fusion)
- MFI at 33.3 nM [2]: 23700 MFI

Substance: variant CD80 IgV-Fc M43I/M47L/A71G (Fc fusion)
- MFI at 33.3 nM [10]: 23300 MFI
- MFI at 33.3 nM [12]: 7760 MFI
- MFI at 33.3 nM [11]: 1000 MFI

Now from value to substance:

- MFI at 33.3 nM [1]: 32500 MFI
- MFI at 33.3 nM [2]: 29700 MFI
Substance: variant CD80 IgV-Fc D46V/M47L/V68M/L85Q (Fc fusion)

- MFI at 33.3 nM [3]: 709 MFI
- MFI at 33.3 nM [2]: 128 MFI
Substance: WT CD80 ECD-Fc (Abcam) (from UniProt P33681) (Fc fusion)

- MFI [4]: 70 MFI
Substance: WT CD80 ECD-Fc (Example 25) (Fc fusion)

- Fold change to WT CD80 [5]: 12.4 fold
- MFI at 33.3 nM [5]: 544 MFI
- Ratio of PDL1:CD28 [6]: 54.7
- Fold change to WT CD80 [7]: 682 fold
- MFI at 33.3 nM [7]: 29700 MFI
- Fold change to WT CD80 [8]: 16 fold
- MFI at 33.3 nM [8]: 21700 MFI
Substance: variant CD80 IgV-Fc H18Y/A26E/M47L/V68M/A71G (Fc fusion)

- MFI at 33.3 nM [10]: 23300 MFI
- MFI at 33.3 nM [11]: 23.7 MFI
Substance: variant CD80 IgV-Fc E35D/M47V/L85M/R94Q (Fc fusion)

- MFI at 33.3 nM [10]: 26300 MFI
- MFI at 33.3 nM [12]: 3530 MFI
- MFI at 33.3 nM [11]: 479 MFI
Substance: variant CD80 IgV-Fc H18Y/E35D (Fc fusion)

- MFI at 33.3 nM [1]: 4370 MFI
- MFI at 33.3 nM [3]: 170 MFI
Substance: variant CD80 IgV-Fc N48K/K89N (Fc fusion)

- MFI at 33.3 nM [1]: 11100 MFI
- MFI at 33.3 nM [3]: 60.9 MFI
- MFI at 33.3 nM [2]: 4040 MFI
Substance: variant CD80 IgV-Fc M47L/V68M/L85Q (Fc fusion)

- MFI at 33.3 nM [1]: 944 MFI
- MFI at 33.3 nM [3]: 56.3 MFI
- MFI at 33.3 nM [2]: 52.8 MFI
Substance: variant CD80 IgV-Fc K89N (Fc fusion)

- IL-2 release, primary T cells + K562/OKT3 (No PD-L1), 100 nM [9]: 6200
Substance: WT CD80 IgV-Fc (effector) (Fc fusion)

- MFI at 33.3 nM [1]: 34300 MFI
- MFI at 33.3 nM [2]: 29300 MFI
Substance: variant CD80 IgV-Fc E35D/D46V/M47L/V68M (Fc fusion)

- MFI at 33.3 nM [12]: 46.3 MFI
- MFI at 33.3 nM [11]: 43 MFI
Substance: WT CD80 ECD-Fc H22.6 (Fc fusion)

- Fold change to WT CD80 [5]: 46.6 fold
- MFI at 33.3 nM [5]: 2050 MFI
- Ratio of PDL1:CD28 [6]: 8.7
- Fold change to WT CD80 [7]: 407 fold
- MFI at 33.3 nM [7]: 17700 MFI
- Fold change to WT CD80 [8]: 18.7 fold
- MFI at 33.3 nM [8]: 25400 MFI
Substance: variant CD80 IgV-Fc H18Y/A26E/M47L/A71G/D90G (Fc fusion)

- MFI at 33.3 nM [10]: 20600 MFI
- MFI at 33.3 nM [12]: 6640 MFI
Substance: variant CD80 IgV-Fc E35D/M47L/A71G (Fc fusion)

Source: patent US20220177587A1, “METHODS AND USES OF VARIANT CD80 FUSION PROTEINS AND RELATED CONSTRUCTS” (Alpine Immune Sciences, Inc., priority 2018, published 2022)
